Literature values as cited in patent US20080279771A1, “Novel Imaging Agents for Cancer” (GE HEALTHCARE LIMITED, priority 2005, published 2008).

Target: neuropilin-1 receptor (NP-1) (Homo sapiens, UniProt O14786)
Details: NP-1 on tumour cells; read-out: Kd of binding of SEM-3A to NP-1

Chain of neuropilin-1 receptor (NP-1) (O14786 22-923): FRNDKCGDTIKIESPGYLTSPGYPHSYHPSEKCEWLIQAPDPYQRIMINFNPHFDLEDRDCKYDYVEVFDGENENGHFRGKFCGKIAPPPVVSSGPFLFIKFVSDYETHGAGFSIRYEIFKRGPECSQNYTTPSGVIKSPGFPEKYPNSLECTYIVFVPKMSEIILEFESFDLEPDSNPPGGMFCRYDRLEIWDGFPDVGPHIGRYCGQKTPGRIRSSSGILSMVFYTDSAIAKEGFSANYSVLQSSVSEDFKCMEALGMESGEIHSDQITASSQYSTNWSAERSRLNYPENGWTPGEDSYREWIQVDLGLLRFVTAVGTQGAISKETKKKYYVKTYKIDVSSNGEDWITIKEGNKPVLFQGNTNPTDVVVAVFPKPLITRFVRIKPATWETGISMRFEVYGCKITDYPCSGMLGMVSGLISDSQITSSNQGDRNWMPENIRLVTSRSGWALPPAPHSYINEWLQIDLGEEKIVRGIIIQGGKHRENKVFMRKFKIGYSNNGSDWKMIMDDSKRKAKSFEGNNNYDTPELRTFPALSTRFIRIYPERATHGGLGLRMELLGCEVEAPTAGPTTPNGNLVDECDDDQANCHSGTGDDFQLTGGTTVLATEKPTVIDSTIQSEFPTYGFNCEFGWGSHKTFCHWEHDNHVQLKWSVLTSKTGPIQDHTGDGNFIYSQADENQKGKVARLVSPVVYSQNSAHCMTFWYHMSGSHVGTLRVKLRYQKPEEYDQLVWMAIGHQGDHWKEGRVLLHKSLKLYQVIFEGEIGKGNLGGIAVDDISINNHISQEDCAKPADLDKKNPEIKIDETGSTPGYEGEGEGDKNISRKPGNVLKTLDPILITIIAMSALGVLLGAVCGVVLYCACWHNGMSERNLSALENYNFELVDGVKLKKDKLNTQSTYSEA

B1: SEM-3A: Semaphorin-3A, biological peptide that binds the neuropilin-1 receptor; human precursor form consists of 771 amino acids (protein, UniProt Q14563 21-771, looked up)
Semaphorin-3A: NYQNGKNNVPRLKLSYKEMLESNNVITFNGLANSSSYHTFLLDEERSRLYVGAKDHIFSFDLVNIKDFQKIVWPVSYTRRDECKWAGKDILKECANFIKVLKAYNQTHLYACGTGAFHPICTYIEIGHHPEDNIFKLENSHFENGRGKSPYDPKLLTASLLIDGELYSGTAADFMGRDFAIFRTLGHHHPIRTEQHDSRWLNDPKFISAHLISESDNPEDDKVYFFFRENAIDGEHSGKATHARIGQICKNDFGGHRSLVNKWTTFLKARLICSVPGPNGIDTHFDELQDVFLMNFKDPKNPVVYGVFTTSSNIFKGSAVCMYSMSDVRRVFLGPYAHRDGPNYQWVPYQGRVPYPRPGTCPSKTFGGFDSTKDLPDDVITFARSHPAMYNPVFPMNNRPIVIKTDVNYQFTQIVVDRVDAEDGQYDVMFIGTDVGTVLKVVSIPKETWYDLEEVLLEEMTVFREPTAISAMELSTKQQQLYIGSTAGVAQLPLHRCDIYGKACAECCLARDPYCAWDGSACSRYFPTAKRRTRRQDIRNGDPLTHCSDLHHDNHHGHSPEERIIYGVENSSTFLECSPKSQRALVYWQFQRRNEERKEEIRVDDHIIRTDQGLLLRSLQQKDSGNYLCHAVEHGFIQTLLKVTLEVIDTEHLEELLHKDDDGDGSKTKEMSNSMTPSQKVWYRDFMQLINHPNLNTMDEFCEQVWKRDRKQRRQRPGHTPGNSNKWKHLQENKKGRNRRTHEFERAPRSV
Kd: ~0.28 nM
